Experimental data: article PMC2631452, “Redox biology of Mycobacterium tuberculosis H37Rv: protein-protein interaction between GlgB and WhiB1 involves exchange of thiol-disulfide” (BMC Biochemistry, 2009)

Biological target: T1, purified, oxidized GlgB pre-alkylated with iodoacetamide (Mycobacterium tuberculosis H37Rv, UniProt P9WN45 1-731, free cysteines C95 and C658 alkylated with iodoacetamide; C193 and C617 in an intra-molecular disulfide bond (oxidized))
T1 construct: GlgB (Rv1326c), Mycobacterium tuberculosis; recombinant, about 85 kDa on SDS-PAGE; also called pre-alkylated oxidized GlgB; pre-alkylated GlgB
T1 sequence: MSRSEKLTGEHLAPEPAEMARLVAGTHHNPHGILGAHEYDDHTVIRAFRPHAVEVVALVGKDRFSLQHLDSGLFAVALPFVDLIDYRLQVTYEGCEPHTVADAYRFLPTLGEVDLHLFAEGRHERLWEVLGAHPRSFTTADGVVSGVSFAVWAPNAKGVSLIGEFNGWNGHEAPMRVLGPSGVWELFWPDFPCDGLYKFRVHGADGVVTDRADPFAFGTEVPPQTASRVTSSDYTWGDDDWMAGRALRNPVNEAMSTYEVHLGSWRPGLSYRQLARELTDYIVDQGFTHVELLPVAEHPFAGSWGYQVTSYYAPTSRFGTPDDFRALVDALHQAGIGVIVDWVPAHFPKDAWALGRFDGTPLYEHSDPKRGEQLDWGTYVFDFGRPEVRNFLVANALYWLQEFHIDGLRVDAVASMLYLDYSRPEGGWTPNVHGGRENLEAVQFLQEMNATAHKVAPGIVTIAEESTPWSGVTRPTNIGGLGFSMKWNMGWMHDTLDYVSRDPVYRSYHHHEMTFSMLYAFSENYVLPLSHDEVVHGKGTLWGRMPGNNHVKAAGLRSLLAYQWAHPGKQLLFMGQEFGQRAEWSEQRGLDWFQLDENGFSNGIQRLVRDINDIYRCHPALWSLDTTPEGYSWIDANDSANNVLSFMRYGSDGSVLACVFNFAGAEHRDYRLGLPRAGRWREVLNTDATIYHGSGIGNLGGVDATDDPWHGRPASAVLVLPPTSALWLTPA
Test: […]; 50 mM Tris.HCl pH 8.0, 100 mM NaCl, 0.05% Triton X-100, 2 mM EDTA, 10 mM MgCl2, 25°C; […]
Settings: both partners purified

B1: WhiB1C40S (natural protein)
chain: MDWRHKAVCRDEDPELFFPVGNSGPALAQIADAKLVCNRSPVTTECLSWALNTGQDSGVWGGMSEDERRALKRRNARTKARTGV
notes: also called C40S mutant of WhiB1
  binding result: binds
